Assay [1] addresses FVIII in a pool of normal human plasma (human), P00451. Put plainly: cell-based or functional assay.
In assay [2] the target is full length recombinant FVIII (Recombinate, Baxter), P00451. Put plainly: cell-based or functional assay.

Experimental findings from patent US20100266586A1 are described below.

FVIII in a pool of normal human plasma (human), P00451, sequence (P00451 20-2351): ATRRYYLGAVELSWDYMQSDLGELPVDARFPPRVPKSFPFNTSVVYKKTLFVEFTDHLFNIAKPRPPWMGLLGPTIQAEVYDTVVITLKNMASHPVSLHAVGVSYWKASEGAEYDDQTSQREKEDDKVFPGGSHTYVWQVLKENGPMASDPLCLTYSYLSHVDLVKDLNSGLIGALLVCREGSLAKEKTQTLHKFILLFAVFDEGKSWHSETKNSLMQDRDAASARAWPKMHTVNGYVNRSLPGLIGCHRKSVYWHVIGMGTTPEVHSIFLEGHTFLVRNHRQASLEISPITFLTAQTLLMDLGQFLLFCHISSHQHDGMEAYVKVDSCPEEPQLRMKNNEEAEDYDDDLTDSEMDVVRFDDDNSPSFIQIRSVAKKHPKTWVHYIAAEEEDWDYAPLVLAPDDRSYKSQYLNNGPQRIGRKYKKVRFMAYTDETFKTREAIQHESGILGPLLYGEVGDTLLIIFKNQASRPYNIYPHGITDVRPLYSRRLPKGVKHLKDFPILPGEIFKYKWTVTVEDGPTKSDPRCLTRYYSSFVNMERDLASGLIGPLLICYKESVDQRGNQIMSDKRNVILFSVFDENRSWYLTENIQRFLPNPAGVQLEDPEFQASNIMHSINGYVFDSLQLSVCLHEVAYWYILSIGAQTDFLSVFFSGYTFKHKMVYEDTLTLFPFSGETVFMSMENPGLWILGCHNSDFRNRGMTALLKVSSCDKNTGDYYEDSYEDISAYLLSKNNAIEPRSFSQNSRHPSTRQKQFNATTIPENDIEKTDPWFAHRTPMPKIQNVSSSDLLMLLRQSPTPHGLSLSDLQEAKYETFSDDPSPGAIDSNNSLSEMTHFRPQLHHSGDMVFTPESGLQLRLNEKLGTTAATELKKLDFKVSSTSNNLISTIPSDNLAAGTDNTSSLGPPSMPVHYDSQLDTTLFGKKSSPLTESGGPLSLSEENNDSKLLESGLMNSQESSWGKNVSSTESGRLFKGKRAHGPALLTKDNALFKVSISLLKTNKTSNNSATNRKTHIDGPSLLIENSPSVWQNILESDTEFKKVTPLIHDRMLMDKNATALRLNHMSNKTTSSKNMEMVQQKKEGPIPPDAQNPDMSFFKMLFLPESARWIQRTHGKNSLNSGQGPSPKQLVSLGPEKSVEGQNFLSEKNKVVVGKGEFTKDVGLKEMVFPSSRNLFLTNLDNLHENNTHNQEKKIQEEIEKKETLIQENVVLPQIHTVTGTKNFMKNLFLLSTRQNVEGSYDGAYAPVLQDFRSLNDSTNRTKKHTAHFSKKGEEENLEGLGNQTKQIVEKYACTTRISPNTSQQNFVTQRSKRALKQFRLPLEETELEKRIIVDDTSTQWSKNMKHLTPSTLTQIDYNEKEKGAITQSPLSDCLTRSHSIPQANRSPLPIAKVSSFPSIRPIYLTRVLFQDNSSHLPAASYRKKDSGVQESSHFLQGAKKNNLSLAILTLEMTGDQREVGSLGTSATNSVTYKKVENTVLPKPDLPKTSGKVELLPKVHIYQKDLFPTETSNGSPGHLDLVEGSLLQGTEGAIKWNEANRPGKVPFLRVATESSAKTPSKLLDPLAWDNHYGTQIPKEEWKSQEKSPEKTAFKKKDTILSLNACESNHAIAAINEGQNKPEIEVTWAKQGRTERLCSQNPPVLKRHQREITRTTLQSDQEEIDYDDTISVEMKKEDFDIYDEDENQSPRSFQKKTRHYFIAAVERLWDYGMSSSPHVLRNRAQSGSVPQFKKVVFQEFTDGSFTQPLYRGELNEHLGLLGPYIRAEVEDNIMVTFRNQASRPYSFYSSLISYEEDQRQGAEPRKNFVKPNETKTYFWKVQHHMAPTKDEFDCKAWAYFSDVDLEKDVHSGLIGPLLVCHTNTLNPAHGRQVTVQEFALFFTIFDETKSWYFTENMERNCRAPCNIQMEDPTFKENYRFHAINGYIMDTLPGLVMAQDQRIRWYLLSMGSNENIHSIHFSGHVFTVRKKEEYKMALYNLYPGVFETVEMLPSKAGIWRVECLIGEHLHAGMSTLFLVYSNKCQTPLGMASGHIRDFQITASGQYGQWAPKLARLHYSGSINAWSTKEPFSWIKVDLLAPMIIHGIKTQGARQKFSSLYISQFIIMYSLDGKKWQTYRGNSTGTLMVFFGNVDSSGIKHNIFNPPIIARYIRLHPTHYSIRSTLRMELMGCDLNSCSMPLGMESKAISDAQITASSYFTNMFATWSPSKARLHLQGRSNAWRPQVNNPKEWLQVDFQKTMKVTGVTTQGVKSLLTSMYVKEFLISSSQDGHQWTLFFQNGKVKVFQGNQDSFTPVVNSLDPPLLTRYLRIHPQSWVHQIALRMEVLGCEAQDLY
full length recombinant FVIII (Recombinate, Baxter), P00451, sequence (P00451 20-2351): as above

B1: RHD5 (human monoclonal antibody from the lymphoblastoid cell line RHD5) (antibody, V domains shown)
VH: QVQLVQSGAEVKKPGSSVMVSCKASGGTFSSFGISWVRQAPGQGLEWVGGIIPIFGTANTARNFQNRVTITADEFTSTAYIRLRSLRSEDTAVYYCVGGRDAYSFDGFDVWGQGTMVTVSSASTKGPSVFP
VL: SSGLTQPHSVSVSPGQTANITCSRDKLGHKFASWYQQKPGQSPALLIYQDSKRPSGIPERFSGSNSGNTATLTISGTQAMDEADYYCQAWDNTTAVFGGGTKLTVLSQPKAAPSVTLFPPS
In assay [1], B1 displayed an inhibition of FVIII activity at a final concentration of RHD5 of 100 microgram/ml (Bethesda assay, plasma) of 97%. The inhibition of FVIII activity at a final concentration of RHD5 of 100 microgram/ml (Bethesda assay, full length recombinant FVIII) in assay [2] came to 98%.

B2: Krix-1 (human monoclonal antibody KRIX-1 produced in a human lymphoblastoid cell line, native glycosylation) (antibody, human IgG4, V domains shown)
VH: QVQLVQSGAEVKKPGASVKVSCKTSGYNFTGYSASGHIFTAYSVHWVRQAPGQGLEWMGRINPNSGATDYAHKFQGRVTMSRDTSISTAYMELSRLTSDDTAMYYCARADNYFDIVTGYTSHYFDYWGRGTLVTVSSASTKGPSVF
VL: EIVLTQSPGTLSLSPGERATLSCRASQSVASAYLAWYQQKPGQAPRLLIYGASSRATDIPHRFSGSGSGTDFTLTISRLEPEDFAVYYCQQYGTSALLTFGGGTKVEIKRTVAAPSVFIFPPS
modifications: here or on the partner: N-linked glycosylation site at Asn47-Thr49, native glycan as made by the lymphoblastoid cell line
In assay [1], B2 showed an inhibition of FVIII activity (chromogenic assay, normal human plasma) of 90% and a maximal inhibition of FVIII activity (Bethesda assay, chromogenic FVIII assay) of 90%.

B3: deglycosylated KRIX-1 (Krix-1 treated with N-glycosidase-F) (antibody, IgG4, V domains shown)
VH: B2 VH
VL: B2 VL
modifications: here or on the partner: N-linked glycan removed by N-glycosidase-F (2 U/ml, 72 h, 37 C)
In the case of B3, in assay [1], the inhibition of FVIII activity (chromogenic assay, normal human plasma) came to 50% and the maximal inhibition (plateau inhibition) of FVIII activity (Bethesda assay, chromogenic FVIII assay) came out at 50%.
